Data taken from patent US10870874B2, “Binding fusion proteins, binding fusion protein-drug conjugates, XTEN-drug conjugates and methods of making and using same” (Amunix Pharmaceuticals, Inc., priority 2010, dated 2020).
One block for each molecule: values may come before it.

How the values were obtained:
[1] = Stability of XTEN_AE864-GFP incubated in monkey plasma; assay type: in vitro ADME, cynomolgus monkey; conditions: 37° C., 7 days
Protocol: (§1) FIG. 16A-FIG. 16C show an SDS-PAGE gel of samples from a stability study of the fusion protein of XTEN_AE864 fused to the N-terminus of GFP.
(§2) A fusion protein containing XTEN_AE864 fused to the N-terminus of GFP was incubated in monkey plasma and rat kidney lysate for up to 7 days at 37° C. Samples were withdrawn at time 0, Day 1 and Day 7 and analyzed by SDS PAGE followed by detection using Western analysis and detection with antibodies against GFP as shown in FIG. 16A-FIG. 16C. […] The in vivo stability of the fusion protein was tested in plasma samples wherein the GFP_AE864 was immunoprecipitated and analyzed by SDS PAGE as described above.

[2] = In vivo stability of GFP-XTEN in plasma samples after injection; parameters: species or system cynomolgus monkeys; conditions: samples up to 7 days after injection
Protocol: as §1, §2

[3] = Stability of XTEN_AE864-GFP incubated in rat kidney lysate; assay type: in vitro ADME; conditions: 37° C., over 3 days
Protocol: as §1
as §2, with “Samples” for “A fusion protein containing XTEN_AE864 fused to the N-terminus of GFP was incubated in monkey plasma and rat kidney lysate for up to 7 days at 37° C. Samples”

human CD40 = human CD40 (Homo sapiens, UniProt P25942); test: CD40 binding ELISA with cleared lysates of aCD40-XTEN; conditions: from EC50 of lysate dilution and an estimate concentration of 10 μM in the lysate
Protocol: Two aCD40-XTEN constructs, AC384 and AC385, were expressed by growing a culture to saturation in 2×YT and then using this culture to inoculate a 500 ml flask of 2×YT. This second flask was grown to an OD600 of between 0.6 and 1.0 at 37° C., transferred to 26° C., and induced with 1 mM IPTG. The induction was left overnight and cell paste harvested by centrifugation the flowing morning. These pellets were stored as EP220 and EP221. Small samples were taken from the pellet, lysed using bugbuster, and clarified using a microcentrifuge. These cleared lysates were the serially diluted by a factor of three in PBST, for using in a binding ELISA. The ELISA was performed as follows: The plates were coated with either 100 ng/well of human CD40-Fc fusion for 1 hour at 37° C., blocked with 3% BSA in PBS for one hour at 37° C., bound by adding the AC384 or AC385 dilution series to the plate and incubating for one hour at room temperature, washed 3 times with PBST, detected with biotinylated anti-XTEN antibody for one hour at room temperature, washed three times with PBST, amplified with streptavidin-HRP for one hour at room temperature, washed three times with PBST, developed with TMB substrate and read at 405 nm using a plate reader. The ELISA values were plotted versus dilution of lysate plotted on a log scale and an EC50 value determined, with nearly identical results (FIG. 27).

human IL6R = biological target: T1, human IL6R (Homo sapiens, UniProt P08887); test: IL6R binding ELISA of aIL6R-XTEN; conditions: 100 ng/well human IL6R
T1 sequence (P08887 20-468): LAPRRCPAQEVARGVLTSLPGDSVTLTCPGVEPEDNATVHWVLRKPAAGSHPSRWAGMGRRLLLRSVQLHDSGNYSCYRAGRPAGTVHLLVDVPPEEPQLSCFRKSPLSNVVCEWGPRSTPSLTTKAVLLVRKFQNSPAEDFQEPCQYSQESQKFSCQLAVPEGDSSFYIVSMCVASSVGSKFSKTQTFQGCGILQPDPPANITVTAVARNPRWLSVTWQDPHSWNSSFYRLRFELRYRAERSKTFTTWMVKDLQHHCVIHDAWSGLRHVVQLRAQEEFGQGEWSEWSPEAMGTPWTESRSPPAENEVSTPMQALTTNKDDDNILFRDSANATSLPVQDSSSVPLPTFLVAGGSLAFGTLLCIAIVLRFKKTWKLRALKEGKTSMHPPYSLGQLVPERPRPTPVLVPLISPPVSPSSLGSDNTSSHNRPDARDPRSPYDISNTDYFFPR
Protocol: E. coli from a single colony of AC342 was grown to saturation in 2×YT media. 10 mL of this saturated overnight culture was used to inoculate a 500 ml of 2×YT media and this culture was grown to an OD600 between 0.4 and 0.5 at 37° C., transferred to 26° C. and induced with 1 mM IPTG. The culture was then grown overnight (15-17 hours) and harvested by centrifugation at 10,000 rpm in a Sorvall SLA-3000 rotor. The pellets were stored until use at −80° C. Cell paste was resuspended in 25 ml of lysis buffer (20 mM sodium acetate, 50 mM sodium chloride, pH 4.5), lysed by sonication, and clarified by spinning at 10,000 rpm at 4° C. in a Sorvall SS34 rotor. The samples were further acidified by the addition of acetic acid. […] IL6R binding was assessed in an ELISA as follows: the plates were coated with either 100 ng/well of human IL6R for 1 hour at 37° C., blocked with 3% BSA in PBS for one hour at 37° C., bound by adding the AC342 dilution series to the plate and incubating for one hour at room temperature, washed 3 times with PBST, detected with biotinylated anti-XTEN antibody for one hour at room temperature, washed three times with PBST, amplified with streptavidin-HRP for one hour at room temperature, washed three times with PBST, developed with TMB substrate and read at 405 nm using a plate reader.

Chain of human CD40 (P25942 21-193 limits assumed): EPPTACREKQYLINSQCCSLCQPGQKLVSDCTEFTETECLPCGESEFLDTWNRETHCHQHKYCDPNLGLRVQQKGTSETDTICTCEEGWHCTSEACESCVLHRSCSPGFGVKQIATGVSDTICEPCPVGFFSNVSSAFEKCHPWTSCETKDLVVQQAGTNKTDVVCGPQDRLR

B1: XTEN_AE864: fusion protein containing XTEN_AE864 fused to the N-terminus of GFP (protein)
chain: MAEPAGSPTSTEEGTPGSGTASSSPGSSTPSGATGSPGASPGTSSTGSPGGASASCAPSTGGGSPAGSPTSTEEGTSESATPESGPGTSTEPSEGSAPGSPAGSPTSTEEGTSTEPSEGSAPGTSTEPSEGSAPGTSESATPESGPGSEPATSGSETPGSEPATSGSETPGSPAGSPTSTEEGTSESATPESGPGTSTEPSEGSAPGTSTEPSEGSAPGSPAGSPTSTEEGTSTEPSEGSAPGTSTEPSEGSAPGTSESATPESGPGTSTEPSEGSAPGTSESATPESGPGSEPATSGSETPGTSTEPSEGSAPGTSTEPSEGSAPGTSESATPESGPGTSESATPESGPGSPAGSPTSTEEGTSESATPESGPGSEPATSGSETPGTSESATPESGPGTSTEPSEGSAPGTSTEPSEGSAPGTSTEPSEGSAPGTSTEPSEGSAPGTSTEPSEGSAPGTSTEPSEGSAPGSPAGSPTSTEEGTSTEPSEGSAPGTSESATPESGPGSEPATSGSETPGTSESATPESGPGSEPATSGSETPGTSESATPESGPGTSTEPSEGSAPGTSESATPESGPGSPAGSPTSTEEGSPAGSPTSTEEGSPAGSPTSTEEGTSESATPESGPGTSTEPSEGSAPGGASASCAPSTGGGSEPATSGSETPGTSESATPESGPGSEPATSGSETPGSPAGSPTSTEEGTSTEPSEGSAPGSEPATSGSETPGSEPATSGSETPGSEPATSGSETPGTSTEPSEGSAPGTSESATPESGPGSEPATSGSETPGTSTEPSEGSAPG
degradation in plasma [1]: negligible signs of degradation
degradation in vivo [2]: very few signs of degradation
degradation in rat kidney lysate [3]: rapidly degraded

Kd (human CD40): ~50 nM
B2: AC385: anti-CD40-XTEN_AE864 scFv binding fusion protein (protein)
chain: QQKPGQAPRLLIYYASHSISGIPARFSGSGSGTDFTLTISSLEPEDFAVYYCQHGHSYPWTFGGGTKVEIKTGSGEGSEGEGGGEGSEGEGSGEGGEGEGSGTQVQLVQSGSELKKPGASVKVSCKASGYAFTTTGMQWVRQAPGQGLEWMGWINTHSGVPKYVEDFKGRFVFSLDTSVSTAYLQISSLKAEDTAVYYCARSGNGNYDLAYFKYWGQGTLVTVSSGGSPAGSPTSTEEGTSESATPESGPGTSTEPSEGSAPGSPAGSPTSTEEGTSTEPSEGSAPGTSTEPSEGSAPGTSESATPESGPGSEPATSGSETPGSEPATSGSETPGSPAGSPT

EC50 (human IL6R): 5 nM
B3: AC342: aIL6R-XTEN binding fusion protein construct (protein)
chain: YQQKPGKAPKLLIYYTSRLHSGVPSRFSGSGSGTDFTFTISSLQPEDIATYYCQQGNTLPYTFGQGTKVEIKTGSGEGSEGEGGGEGSEGEGSGEGGEGEGSGSQVQLQESGPGLVRPSQTLSLTCTVSGYSITSDHAWSWVRQPPGRGLEWIGYISYSGITTYNPSLKSRVTMLRDTSKNQFSLRLSSVTAADTAVYYCARSLARTTAMDYWGQGSLVTVSSGSPGSPAGSPTSTEEGTSESATPESGPGTSTEPSEGSAPGSPAGSPTSTEEGTSTEPSEGSAPGTSTEPSEGSAPGTSESATPESGPGSEPATSGSETPGSEPATSGSETPGSPAGSPT

Kd (human CD40): ~50 nM
B4: AC384: anti-CD40-XTEN_AE864 scFv binding fusion protein (protein)
chain: QQKPGQAPRLLIYYASHSISGIPARFSGSGSGTDFTLTISSLEPEDFAVYYCQHGHSYPWTFGGGTKVEIKTGSGEGSEGEGGGEGSEGEGSGEGGEGEGSGTQVQLVQSGSELKKPGASVKVSCKASGYAFTTTGMQWVRQAPGQGLEWMGWINTHSGVPKYVEDFKGRFVFSLDTSVSTAYLQISSLKAEDTAVYYCARSGNGNYDLAYFKYWGQGTLVTVSSGGSPAGSPTSTEEGTSESATPESGPGTSTEPSEGSAPGSPAGSPTSTEEGTSTEPSEGSAPGTSTEPSEGSAPGTSESATPESGPGSEPATSGSETPGSEPATSGSETPGSPAGSP
